Experimental data: the nanobody polyreactivity screen of Harvey et al. (2022)

Experiment: yeast display, Sf9 membrane polyspecificity reagent, FACS + sequencing; frameworks hold sequencing errors
Procedure, shortened: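 After 36–48 hours of galactose induction, yeast (Saccharomyces cerevisiae BJ5465) displaying a synthetic nanobody library were stained at 4 °C for 1 hour with 10% biotinylated, detergent-solubilized Sf9 membrane reagent. Streptavidin microbeads enriched the stained cells before FACS sorting into low and high (top ~1%) gates on anti-HA and streptavidin fluorescence. Each clone's polyreactivity label reflects its gate of origin.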

Sequence	polyreactivity (PSR sort gate)
QVQLVESGGGLVQAGGSLRLSCAASGSTFVYMGWYRQAPGKEREFVAAITWSGGSTYYADSVKGRFTISRDNAKNTVYLQMNSLKPEDTAVYYCNAVSDIPGWARYYYWGQGTQVTVSS	low polyreactivity
QVQLVESGGGLVQAGGSLRLSCAASGRIFGVNAMGWYRQAPGKERELVAAIFSGGSTYYADSVKGRFTISRDTAKNTVYLQMNSLKPEDTAVYYCAARFARYDWSMYYWGQGTQVTVSS	low polyreactivity
QVQLVESGGGLVQAGGSLRLSCAASGSIFVNNAMGWYRQAPGKERELVAAISSRSSRTFYADSVKGRFTISRDNAKNTVYLQMNSLKPEDTAVYYCAKPGYLRPSRYDYWGQGTQVTVSS	high polyreactivity
QVQLVESGGGLVQAGVSLRLSCAASGSTFVGYAMGWYRQAPGKERELVAAISYSGGSTYYADSVKGRFTISRDNAKNTVYLQMHSLKPEDTAVYYCAAEWSRHYYYGPRYDYWGQGSQVTVSS	low polyreactivity
QVQLVESGGGLVQAGGSLRLSCAASASTLYRTAMGWYRPAPGKEREMVAAINYRGTRTYYADSVKGRFTISRDNAKNTVYLLMKSLNPEDTAVYYCAKDYSQFVTYPYDYWGQGTQVSVSS	low polyreactivity
QVQLVESGVCLVQAGGSLRLSCASSGRIFKIYMGWYRQAPGKERELVAAISSGGRTYYADSVKGRFTISRDNAKNTVYLQMNSLKPEDTAVYYCAAEGTYYFRYPGPEDYDYWGLGTQVTVSS	high polyreactivity
QVQLVESGGGLVQAGGSLRLSCAASGLILSSNTMGWYRQAPGKERELVARIRRNDGNTYYADSVKGRFTISRDNAKNTVYLQMNSLKPEDTAVYYCAQYLAIGYYWGQGTQVTVSS	low polyreactivity
QVQLVESGGGLVQAGGSLRLSCAASGITFETYAMGWYRQAPGKERELVAAITYSGGRTYYADSVKGRFTISRDNAKNTVYLQMNSLKPEDTAVYYCNARKYVGFWSRYDYWGQGTQVTVSS	high polyreactivity
HVQLVESGGGLVQAGGSLRLSCAASGFTFNYNALGGYRQAPGKERELVAAIRRSGGSTYYADSVKGRFTISRDNAKNTVYLQMNSLKPEDTAVYYGAARQSFLYGDWGQGTQVTVSS	high polyreactivity
QDQLVESGVGIVQAGGRLRLSCAASGRTFGRNAMGWYIQAPGKERELVATISRSGGSTNYADSVKGRFTISRDNAKNTVYLQMNSLKPEDTAVYYCAKARPFSYDYWGLGTQVTVSS	high polyreactivity
QVQLVESGGGLVQAGGSLRLSCAASGFTFSWYAMGWYRQAPGKERELVAAINADGGTTYYADSVKGRFTISRDNAKNTVYLQMHSLKPEDTAVYYFAAELSVDKYDYWGQGTQVSVSS	low polyreactivity
QVQLVESGGGLVQAGGSLRLSCAASGSIYEYYVMGWYRHAPGKERELVAAISYSGDSTYYADSVKGRFTISRDNAKNTVYFQMNSLKPEDTAVYYCAAQYSRVIPPGYDYWGQGSQVTVSS	high polyreactivity
QVQLVESGGGLVQAGGSLRLSCAASGITFRSYAMGWYRQAPGKERELVATISWSGGITYYADSVKGRFTISRDNAKITVYLQMNSLKPEDTAVYYCAKASQSWGRDDYYYWGQGTQLTVSS	low polyreactivity
QVQHVESGGGLVQAGGSLRLSCAASGLTFAGYTMGWYRQAPGKERELVAAITRGGGRTYYADSVKGRFTISRDNAKNTVYLQMNSLKPEDTAVYYCATVSQYRGYYWGQGTQVTVSS	high polyreactivity
QVQLVESGGGLVQAGGSLRLSCAASGSTFYGYALGWYRQAPGKERELVAGITSAGSTYYADSVKGRFTISRDNAKNTVYLQMNSLKPEDTAVYYCAAVYRRWIWRERYYYCGQGTQVTVSS	high polyreactivity
HVKLQESCGGLVPAGGSLRLSSAASATISYARNMASYLQAPGTERELVAAIDRGASTYYADSVKGLFTISRDNAKNTVYLQIYSLKPEDTAVYYCAAEYHDRWEDRYWGQGTQGTVSS	high polyreactivity
QFQLVESGGGLVQAGGSLRLSCAASGYTFRYYSMGWYRQATGKERELVAAISRSGGSTYYADSVKGRFTISRDYAKNTVYLQMYSLKPEDTAVYYCAADYSYRTRGNRYRLDYWGQGTQVTVSS	high polyreactivity
QVQLVESGGGLVQAGGSLRLSCAASGRTFSRNAMGWYRQAPGKERELVATISSSGVRTYYADSVKGRFTISRDNAKNTVYVQMNSLKPEDTGVYYCAAALRYFSAASGYDYWGQGTQVTVTS	low polyreactivity
QVQLVESGGGLVQAGGSLRLSCAASGRIFYSYAMGGYRQAPGKERELVATITNGGSTNYADSVKGRFTISRDNAKNTVYLQMNSLKPEDPAVYYCATDQFTRSVDFDYWGQGTQVTVSS	high polyreactivity
QVQLVESGGGLVQAGGSLRLSCAASGITLYFYAMGWYRQAPGKERELVAAISRGGRTYYADSVKGRFTISRDNAKNTVYLQMNSLKPEDTAVYYCAARYTSEYSAFDYWGQGTQVTVSS	low polyreactivity
QVQLVESGGGLVQAGGSLRLSCAASGSTFTWNVMGWYREAPGKERELVAAIDGSGGDTYYADSVKGRFTISRDHAKNTVYLQMNSLNPEDTAVYYCAAEDAAAYSENDYWGQGTQVTVSS	low polyreactivity
QVQLVESGGGLVQAGGSLRLSCAASGSTLLYYAMGWYRQAPGKERELVAAISSTGSTNYADSVKGRFTISRDNAKNTVYLQMKSLKPEDTAVYYCAADYSVPTSQAYDYWGQGTQVTVSS	low polyreactivity

Sequence	polyreactivity (PSR sort gate)
QVQLVESGGGLVQAGGSLRLSCAASGSIFSPNVMGWYRQAPGKERELVAAINGSGSRTYYADSVKGRFTISRDNAKNTVYLQMNSLKPEDTAVYYCAAGSLGRYYFKLDYWGQGTQVTVSS	high polyreactivity
QVQLVESGGGLVQAGGSLRLSCAASGSTFDNYAMGWYRQAPGKERELVATITSGGSITNYADSVKGRFTISRDNAKNTVYLQMYSLKPEDTAVYYCAKRRYFYYRGDYWGQGTQVTVSS	high polyreactivity
QVQLVESGGGLVQAGGSLRLSCAASGRTFYRNAMGWYRQAPGKERELVARITSGGSTNYADSVKGRFTISRDNAKNTVYLQMNSLKPEDTAVYYCAAVSRYYPYGYWGQGTQVNVSS	high polyreactivity
QVQLVESGGGLVQAGGSLRLSCAASGSIFDDNAMGWYRQAPGKERELVAAITSTDSTNYADSVKGRFTISRDNAKNTVYLQMNSLKPEDTAVYYCAKDARALWLHSGIYDYWGQGTQVTVSS	low polyreactivity
QVQLVESGGGLVQAGGSLRLSCAASGRIFYPYAMGWYRQAPGKERELVAAIDWTAGGTYYADSVKGRFTISRDNAKNTVYLQMNSLKPEDTAVYYCAAEYYIEANGDYWGQGTQVTVSS	low polyreactivity
QVQLQESGGGLVQAGGSLRMSCAASGNIFDADIMGWYRQAPGKERELVASITDGRRTNYADSVKGRYTISRDSEKNTVYMQMNSLIPVDTAVYYCADIAYPVVPTYFDYDSDYFHWGQGTQVTVSS	high polyreactivity
QVQLVESGGGLVQAGGSLRLSCAASGRIFSPYAMGWYRQAPGKERELVARISWRGSRTYYADSVKGRFTISRDNAKNTVYLQMNSLKPEDTAVYYCNAVFYRKPLRRDYWVQGTQVTVSS	high polyreactivity
QVQLVESVGGLVQAGGSLRLSCDASGSIFASYAMGGYRQAPGKERELVAAISTSGVSTHYADSVNGRFTISRENAKNTVYLQLNSLKQEDTAVYYCAATPGYKRYYWGQGTQVTVSS	high polyreactivity
QVQLVESGGGLVQAGGSLRLSCAASGSTFRFNAMGWYRQAPGKEREFVAAIRFTGGSTYYADSVKGRFTISRDNAKNTVYLQMNSLKPEDTAVYYCNNADEYSTVEYDYWGQGSQVTVSS	low polyreactivity
QLQLVESGGGLVQAGGSRRLSCAASGSTFGRYAMGWYRQAPGKERELVAAISRRGTSTYYADSVKGRFTISRDNAKNTVYIQMNSLKPEDTAVYYSNAVTSSFYNRDSDYWGQGTQVTVSS	high polyreactivity
QVQLVESGGGLVQAGGSLRLSCAASGSIFSIYAMGWYRQAPGKERELVATIRRDGSTYADSVKGRFTISRDNAKNTVYLQMNSLKPEDTAVYYCNARSYHQPRDYYWGQGTQVNVSS	low polyreactivity
QVQLVESGGGLVQAGGSLRLSCAASGYIFRYNAMGWYRQAPGTEREFVASINWSGGRTYYADSVKGRFTLSRDNAKNTVYLQMNSLKPEDTAVYYCAAVYYVSLVYGYYVEGSYEYYYWGQGTQVTVSS	high polyreactivity
QVHLVESGGGLDQAGGSLRLSCAASGIIFFKNAMGWYRPAPGKERELVAAISSTDTRTYYADSVKGRFTISRDNAKNTVYLQKNSLKPEDTAVYYCAADYIYYYEQYLWYTYDYWGQGTQVTLSS	high polyreactivity
QVQLVESGGGLVQAGGSLRLSCAASGRTFSSNAMGWYRQAPGKERELVASISFRGGRTYYADSVKGRFTISRDNAKNTVYLQMNSLKPEDTAVYYCVSGTKRTGYGYWGQGTQVTVSS	high polyreactivity
QVQLVESGGGLVQAGGSLRLSCAASGFTFSQYAMGWYRQAPGKERELVAAINSRGGSTYYADSVKGRFTISRDNAKNTVYLQINSLKPEDTAVYYCNAVISGYPYEYDYWGQGTQVTVSS	high polyreactivity
QVQLVESGGGLVQAGGSLRLSCAASGSIFSYYAMGWYRQAPGKERELVAAIDRSGVSTYYADSVKGRFTISRDNAKNTVYLQMNSLKPEDTAVYYCNTDHRNICFRFKYDYWGQGTQVTVSS	high polyreactivity
QVQLVESGGGLVQAGGSLSLICAASGFTFYIYAMGWSRQAPRKERELVAAISSSGGSTYYADSVKGRFTISRDNAKITVYLQMNSLKPEDTAVYYCARRLLRGSDWGQGTQVTVSS	high polyreactivity
QVQLVESGGGLVQAGGSLRLSCAASGRTFNRYVMGWYRQAPGNERELVAALTSSGRTNYADSVKGRFTLSRDNAKNTVYLQMNSLKPEDTAVYYCAKGLYRRYYRVWWLRGDYWGQGTQVTVSS	high polyreactivity
QVQLVESGGGLVQAGGSLRLSCAASGLTSYFYDMGWYRQAPGKERELVAAIRASAARTYYADTVKGRFTISRDNAKNTVYLQMNSLKPEDTAVYSCAARYGYWRQFRWKYDYWGHGTQVTVSS	high polyreactivity
QVQLVESGGGLVQAGGSLRLSCAASGRIFDHNAMGWYRPAPGKERELVAAIDWSGGSTYYADSVKGRFTISRDNAKNTVYLQMNSLKPEDTAVYYCNVYWHTFSWDDYGYWGQGTQVTVSS	low polyreactivity
QVQLVESGGGLVQAGGSLRLSCAASGSTFYGYAMGWYRQPPGKERELVAAITIGGRTYYADSVKGRFTISRDNAKNTVYLQMNSLKPEDTAVYYCAAAILRTVPELGSRRTYYYWGQGTQVTVSS	high polyreactivity
